Biological target: human BCMA recombinant antigen (human) (UniProt Q02223)
Experiment: competition ELISA, coated human BCMA, antibody varied, then biotinylated human APRIL at 240 ng/mL, SA-HRP

human BCMA recombinant antigen (human), sequence (Q02223 1-53): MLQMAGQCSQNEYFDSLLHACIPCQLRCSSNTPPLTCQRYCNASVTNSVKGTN

REGN5458 (bispecific antibody)
IC50 (read off the curve): 3 nM

From patent US20250277045A1
